The experiment addresses T1, hexa-histidine tagged PsMT2 (Papaver somniferum, UniProt I3PLQ6 1-356).
T1 construct: PsMT2, O-methyltransferase of the noscapine gene cluster of Papaver somniferum; gene codon-optimised for S. cerevisiae, amplified with primers PsMT2-pET-F/R and inserted into pET28a; Printed mass of the His-tagged protein is 40.09 kDa; also called His-tagged PsMT2; source: E. coli BL21(DE3), co-expressed with T7-tagged PsMT3 or Ps6OMT; complex purified (Ni-NTA agarose, then T7 tag antibody …)
T1 sequence (looked up): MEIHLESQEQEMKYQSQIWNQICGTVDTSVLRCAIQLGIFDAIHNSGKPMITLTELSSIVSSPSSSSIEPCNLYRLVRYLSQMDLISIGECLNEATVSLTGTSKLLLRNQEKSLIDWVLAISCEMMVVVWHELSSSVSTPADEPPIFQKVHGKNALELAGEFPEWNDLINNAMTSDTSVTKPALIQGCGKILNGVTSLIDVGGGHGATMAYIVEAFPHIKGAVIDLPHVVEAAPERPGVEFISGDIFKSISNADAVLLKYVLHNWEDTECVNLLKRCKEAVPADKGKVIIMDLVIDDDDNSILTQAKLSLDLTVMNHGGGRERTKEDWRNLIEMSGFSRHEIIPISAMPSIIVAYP
Nature of the experiment: pull-down; tandem affinity co-purification from lysate of E. coli co-expressing both proteins: Ni-NTA agarose (His-tagged PsMT2), eluate then on T7 tag antibody agarose (T7-tagged partner); product analysed by SDS-PAGE and western blot with Anti-6X His tag and Anti-T7 tag antibodies. The settings on record: partners not purified. In general terms: Immunoblotting shows a protein as a band on a membrane.

B1: Ps6OMT with T7 tag (enzyme, Papaver somniferum, UniProt Q6WUC1 1-346, looked up)
chain: METVSKIDQQNQAKIWKQIYGFAESLVLKCAVQLEIAETLHNNVKPMSLSELASKLPVAQPVNEDRLFRIMRYLVHMELFKIDATTQKYSLAPPAKYLLRGWEKSMVDSILCINDKDFLAPWHHLGDGLTGNCDAFEKALGKSIWVYMSVNPEKNQLFNAAMACDTRLVTSALANECKSIFSDGISTLVDVGGGTGTAVKAISKAFPDIKCTIYDLPHVIADSPEIPNITKISGDMFKSIPSADAIFMKCILHDWNDDECIQILKRCKEALPKGGKVIIVDVVIDMDSTHPYAKIRLTLDLDMMLNTGGKERTKEEWKTLFDAAGFASHKVTQISAVQSVIEAYPY
notes: norcoclaurine 6-O-methyltransferase from Papaver somniferum (Ps6OMT); also called norcoclaurine 6-O-methyltransferase from P. somniferum; source: E. coli, co-transformed with pCS3306 (His-tagged PsMT2) and pCS3534; complex purified by a similar procedure as PsMT2/PsMT3 (Ni-NTA agarose, then T7 tag antibody agarose); not shown: T7 tag, C-terminal, kept
For B1, the binding result is recorded as “binds”.
